From article PMC6796883 come the findings set out here.

Common to all, as to assay: ITC; 25 °C, MicroCal PEAQ-ITC; 50 μM protein in the cell titrated with 17 injections of 750 μM peptide; in the absence of NAD+; 'one set of binding sites' model
In general terms: Isothermal titration calorimetry measures the heat released or taken up as one component is titrated into another.

In assay [1] the target is SIRT5Δ (human SIRT5 residues 34-302) (human) (UniProt Q9NXA8).
The target in assay [2] is SIRT6 (human SIRT6 residues 1-355) (human) (UniProt Q8N6T7).
The target in assay [3] is CobBΔ (E. coli CobB residues 38-279) (E. coli) (UniProt P75960).
Assay [4] deals with SIRT1Δ (human SIRT1 NAD+-dependent deacetylase domain 234-510 with C-terminal regulatory region 641-665) (human) (UniProt Q96EB6).
Assay [5] deals with SIRT2Δ (human SIRT2 residues 34-356) (human) (UniProt Q8IXJ6).
SIRT2Δ (human SIRT2 residues 34-356) (human), sequence (Q8IXJ6 34-356, stated change not applied): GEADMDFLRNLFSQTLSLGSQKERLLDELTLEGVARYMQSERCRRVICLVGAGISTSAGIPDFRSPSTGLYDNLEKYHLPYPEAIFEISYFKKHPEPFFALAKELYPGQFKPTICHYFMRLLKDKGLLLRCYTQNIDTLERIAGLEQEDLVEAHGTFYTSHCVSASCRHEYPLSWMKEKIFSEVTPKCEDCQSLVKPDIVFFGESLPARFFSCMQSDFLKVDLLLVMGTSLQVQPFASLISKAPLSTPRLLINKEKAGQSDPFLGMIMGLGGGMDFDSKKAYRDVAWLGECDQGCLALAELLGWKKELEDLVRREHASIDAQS

SIRT6 (human SIRT6 residues 1-355) (human), sequence (Q8N6T7 whole entry, the tested form may be a part): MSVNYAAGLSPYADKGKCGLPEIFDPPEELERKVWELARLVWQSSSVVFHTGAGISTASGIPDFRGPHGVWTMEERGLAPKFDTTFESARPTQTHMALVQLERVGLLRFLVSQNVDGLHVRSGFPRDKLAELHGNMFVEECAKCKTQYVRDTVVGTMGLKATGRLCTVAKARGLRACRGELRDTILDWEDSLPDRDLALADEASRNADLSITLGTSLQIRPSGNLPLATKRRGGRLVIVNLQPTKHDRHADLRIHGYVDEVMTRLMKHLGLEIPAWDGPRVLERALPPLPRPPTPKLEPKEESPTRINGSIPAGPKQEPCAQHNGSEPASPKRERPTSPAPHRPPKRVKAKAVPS
SIRT5Δ (human SIRT5 residues 34-302) (human), sequence (Q9NXA8 34-302, stated change not applied): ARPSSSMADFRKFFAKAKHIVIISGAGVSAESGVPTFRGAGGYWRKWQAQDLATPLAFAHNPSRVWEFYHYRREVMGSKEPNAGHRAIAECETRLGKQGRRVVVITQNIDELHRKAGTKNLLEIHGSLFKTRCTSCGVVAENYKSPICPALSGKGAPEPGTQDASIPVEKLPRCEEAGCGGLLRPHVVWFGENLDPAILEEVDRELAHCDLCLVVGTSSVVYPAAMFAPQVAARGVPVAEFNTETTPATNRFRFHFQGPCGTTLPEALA

On to “histone H3(1-15)K9ac peptide (from UniProt P68431 2-16)”, for which the figures for the Kd in assay [1] and in assay [2] were 153000 nM and 102000 nM, respectively.

In turn, “histone H3(1-15)K9bu peptide (from UniProt P68431 2-16)” returned a Kd in assay [3] of 200 nM.

In assay [4], “histone H3(1-15)K9cr peptide (from UniProt P68431 2-16)” had a Kd of 45400 nM.

Consider “histone H3(1-15)K9dec peptide (from UniProt P68431 2-16)”, for which the results for the Kd in assay [3], in assay [4] and in assay [2] were 200 nM, 7000 nM and 54400 nM, respectively.

Consider “histone H3(1-15)K9dod peptide (from UniProt P68431 2-16)”, for which the figures for the Kd in assay [3], in assay [4] and in assay [5] were 60 nM, 4900 nM and 6900 nM, respectively.

Substance “histone H3(1-15)K9hex peptide (from UniProt P68431 2-16)” had a Kd in assay [3] of 300 nM.

With “histone H3(1-15)K9myr peptide (from UniProt P68431 2-16)”, the Kd amounted to 50 nM in assay [3] and 800 nM in assay [5].

As for “histone H3(1-15)K9oct peptide (from UniProt P68431 2-16)”, the Kd in assay [3] worked out at 200 nM; in assay [2], 700 nM.

Take “histone H3(1-15)K9pr peptide (from UniProt P68431 2-16)”: the Kd in assay [3] is 800 nM; in assay [5] it was 105000 nM.

As a reminder, the Kd is the concentration at which binding is half-saturated. A higher Kd goes with a looser complex.
